Each block holds one compound with its values, some of them ahead of it.
Columns and labels:
TaABI1 (wheat) [1] = biological target: TaABI1 (wheat)
AtABI1 (A. thaliana) = AtABI1 (A. thaliana) (UniProt P49597)
TaABI1 (wheat) [2] = biological target: TaABI1 (wheat); remark: listed apart in the source
[3] = biological target: Bradi2g41950 (B. distachyon)
[4] = biological target: T1, Bradi1g37810 (with Bradi2g41950) (Brachypodium distachyon, UniProt I1GXY5); assay: receptor-mediated PP2C inhibition, 4-methylumbelliferyl phosphate fluorescence; format: biochemical; conditions: ligand 0.1 uM unless otherwise noted, Mn2+, pH 7.9, 30 °C, n = 1 screen
T1 construct: gene LOC100840898; recombinant from E. coli, Ni-NTA enriched; receptor 196 residues; with Protein phosphatase 2C
T1 sequence (I1GXY5 1-196): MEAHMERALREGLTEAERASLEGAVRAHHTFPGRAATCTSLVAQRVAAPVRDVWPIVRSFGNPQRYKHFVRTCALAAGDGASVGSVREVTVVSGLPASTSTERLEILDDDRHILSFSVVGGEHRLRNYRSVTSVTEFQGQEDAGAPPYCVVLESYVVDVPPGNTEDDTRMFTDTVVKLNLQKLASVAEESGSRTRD

AtPYL6 (with TaABI1) = biological target: T2, AtPYL6 (with TaABI1) (Arabidopsis thaliana, UniProt Q8S8E3); assay: as above; format: biochemical; conditions: ligand 0.1 uM unless otherwise noted, Mn2+, pH 7.9, 30 °C
T2 construct: gene PYL6; recombinant from E. coli, Ni-NTA enriched; the partner PP2C is from wheat; with Protein phosphatase 2C ABI1 (Triticum aestivum)
T2 sequence (Q8S8E3 1-215): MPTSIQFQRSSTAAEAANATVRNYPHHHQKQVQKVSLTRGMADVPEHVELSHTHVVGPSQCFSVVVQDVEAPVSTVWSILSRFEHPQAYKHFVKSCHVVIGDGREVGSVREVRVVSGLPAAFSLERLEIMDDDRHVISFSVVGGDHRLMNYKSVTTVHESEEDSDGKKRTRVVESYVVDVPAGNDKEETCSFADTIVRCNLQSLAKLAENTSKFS
T2 sequence (A5A6P8 1-479 partner): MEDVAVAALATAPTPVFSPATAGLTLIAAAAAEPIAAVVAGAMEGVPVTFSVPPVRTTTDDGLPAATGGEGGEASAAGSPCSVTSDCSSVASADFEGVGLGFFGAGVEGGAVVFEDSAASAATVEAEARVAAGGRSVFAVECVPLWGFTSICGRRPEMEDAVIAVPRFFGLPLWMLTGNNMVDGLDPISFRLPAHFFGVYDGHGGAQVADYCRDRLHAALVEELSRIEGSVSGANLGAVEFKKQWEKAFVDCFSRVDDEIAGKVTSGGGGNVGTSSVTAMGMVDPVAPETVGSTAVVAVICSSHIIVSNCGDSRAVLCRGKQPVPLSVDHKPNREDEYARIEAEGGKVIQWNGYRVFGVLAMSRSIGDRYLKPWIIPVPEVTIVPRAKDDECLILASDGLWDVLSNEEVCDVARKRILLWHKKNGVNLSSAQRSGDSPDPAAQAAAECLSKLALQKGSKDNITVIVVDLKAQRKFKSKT

AtABI1 (A. thaliana), sequence (P49597 whole entry): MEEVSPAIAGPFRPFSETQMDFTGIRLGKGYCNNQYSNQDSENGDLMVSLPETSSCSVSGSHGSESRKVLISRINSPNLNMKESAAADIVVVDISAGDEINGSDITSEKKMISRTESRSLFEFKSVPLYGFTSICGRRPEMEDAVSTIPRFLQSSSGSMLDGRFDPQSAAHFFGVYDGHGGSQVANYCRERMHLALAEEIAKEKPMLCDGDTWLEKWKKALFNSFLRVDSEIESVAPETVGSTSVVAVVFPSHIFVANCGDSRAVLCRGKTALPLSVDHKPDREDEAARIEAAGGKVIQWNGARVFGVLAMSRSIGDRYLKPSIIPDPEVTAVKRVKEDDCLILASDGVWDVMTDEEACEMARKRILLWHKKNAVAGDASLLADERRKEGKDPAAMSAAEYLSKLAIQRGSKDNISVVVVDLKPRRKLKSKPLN

- PP2C phosphatase activity, receptor to PP2C 10:1, with 0.1 uM PBI352 (Fig 2B) (% decrease in PP2C activity) (TaABI1 (wheat) [1]): 30
- PP2C phosphatase activity, receptor to PP2C 10:1, with 0.1 uM PBI354 (Fig 2C) (% decrease in PP2C activity) (TaABI1 (wheat) [1]): 0
- PP2C phosphatase activity, receptor to PP2C 10:1, with 0.1 uM PBI352 (Fig 2B) (% decrease in PP2C activity) (AtABI1 (A. thaliana)): 30
- PP2C phosphatase activity, receptor to PP2C 10:1, with 0.1 uM PBI354 (Fig 2C) (% decrease in PP2C activity) (AtABI1 (A. thaliana)): 0
- TaABI1 phosphatase activity (4-methylumbelliferyl phosphate) with the receptor, on addition of ABA (Figure B in S2 File) (% reduction of phosphatase activity) (TaABI1 (wheat) [2]): 90
Compound: Ta_PYL2DS_FL (receptor)

- Bradi2g41950 phosphatase activity with receptor and PBI352 (Figure C in S2 File; n = 1) (% inhibition of PP2C) [3]: 90
Compound: Bradi3g09580 (receptor)

Compound: CO[C@]1(/C=C/C(C)=C\C(=O)O)C(C)=CC(=O)CC1(C)C [PBI352]
- % inhibition of PP2C [4]: subfamily III receptor Bd1g37810 is similar to that of the subfamily II, Ta_PYL2DS_FL
- % inhibition of PP2C (AtPYL6 (with TaABI1)): the three A. thaliana receptors against the Ta_ABI1 PP2C were plotted

- Bradi2g41950 phosphatase activity with receptor and PBI352 (Figure C in S2 File; n = 1) (% inhibition of PP2C) [3]: 90
Compound: Bradi2g32250 (receptor)

Source: paper PMC5068739 (PLoS ONE, 2016)
